Measured values reported in US20250076311A1 (Chugai, published 2025).

B1: MS1032LO06-P1375m (antibody, human IgG1, kappa, name in EU numbering)
heavy: not shown
light: DIVMTQSPATLSLSPGERATLSCTSSQSVYHANWLSWFQQKPGQPPKLLIYWASTLAYGVPSRFSGSGSGTDFTLTISSLQPEDAATYYCAGGYGGGRYAFGQGTKVEIKRTVAAPSVFIFPPSDEQLKSGTASVVCLLNNFYPREAKVQWKVDNALQSGNSQESVTEQDSKDSTYSLSSTLTLSKADYEKHKVYACEVTHQGLSSPVTKSFNRGEC
notes: also called M103205H795-P1375m; copies: 2 + 2
B2: M103205H795-P1484m/M103202L889-SK1 (antibody, human IgG1, kappa, name in EU numbering)
heavy: not shown
light: B1 light
notes: copies: 2 + 2
B3: M103205H795-P1485m/M103202L889-SK1 (antibody, human IgG1, kappa, name in EU numbering)
heavy: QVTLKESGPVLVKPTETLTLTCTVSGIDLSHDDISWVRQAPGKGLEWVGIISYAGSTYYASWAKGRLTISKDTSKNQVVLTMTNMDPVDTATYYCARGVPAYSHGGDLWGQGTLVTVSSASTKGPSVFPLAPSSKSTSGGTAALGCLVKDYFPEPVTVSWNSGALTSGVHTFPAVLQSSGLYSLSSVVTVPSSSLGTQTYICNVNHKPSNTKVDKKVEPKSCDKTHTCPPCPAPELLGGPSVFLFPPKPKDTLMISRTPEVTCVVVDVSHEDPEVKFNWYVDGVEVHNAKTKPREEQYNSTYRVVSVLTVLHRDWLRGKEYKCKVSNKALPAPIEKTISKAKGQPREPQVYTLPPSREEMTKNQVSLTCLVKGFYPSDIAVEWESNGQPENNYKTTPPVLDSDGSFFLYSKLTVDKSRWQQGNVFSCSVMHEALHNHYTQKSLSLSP
light: B1 light
notes: copies: 2 + 2
B4: M103205H795-P1486m/M103202L889-SK1 (antibody, human IgG1, kappa, name in EU numbering)
heavy: not shown
light: B1 light
notes: copies: 2 + 2
B5: M103205H795-P1487m/M103202L889-SK1 (antibody, human IgG1, kappa, name in EU numbering)
heavy: not shown
light: B1 light
notes: copies: 2 + 2
B6: M103205H795-P1488m/M103202L889-SK1 (antibody, human IgG1, kappa, name in EU numbering)
heavy: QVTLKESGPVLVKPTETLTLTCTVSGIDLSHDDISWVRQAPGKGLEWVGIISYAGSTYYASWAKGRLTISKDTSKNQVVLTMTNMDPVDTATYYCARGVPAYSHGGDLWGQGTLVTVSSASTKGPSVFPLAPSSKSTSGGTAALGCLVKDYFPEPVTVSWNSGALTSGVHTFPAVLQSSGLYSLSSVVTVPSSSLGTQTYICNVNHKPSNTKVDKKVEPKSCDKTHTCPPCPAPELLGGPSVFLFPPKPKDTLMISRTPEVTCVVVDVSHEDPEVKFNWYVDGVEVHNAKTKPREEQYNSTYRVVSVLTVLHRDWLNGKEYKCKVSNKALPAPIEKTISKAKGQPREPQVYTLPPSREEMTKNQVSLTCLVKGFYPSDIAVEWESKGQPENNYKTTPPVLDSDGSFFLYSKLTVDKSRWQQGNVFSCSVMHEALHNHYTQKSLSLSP
light: B1 light
notes: copies: 2 + 2
B7: M103205H795-P1489m/M103202L889-SK1 (antibody, human IgG1, kappa, name in EU numbering)
heavy: not shown
light: B1 light
notes: copies: 2 + 2
B8: M103205H795-P1490m/M103202L889-SK1 (antibody, human IgG1, kappa, name in EU numbering)
heavy: not shown
light: B1 light
notes: copies: 2 + 2
B9: M103205H795-P1491m/M103202L889-SK1 (antibody, human IgG1, kappa, name in EU numbering)
heavy: not shown
light: B1 light
notes: copies: 2 + 2
B10: M103205H795-P1492m/M103202L889-SK1 (antibody, human IgG1, kappa, name in EU numbering)
heavy: not shown
light: B1 light
notes: copies: 2 + 2
B11: M103205H795-P1493m/M103202L889-SK1 (antibody, human IgG1, kappa, name in EU numbering)
heavy: not shown
light: B1 light
notes: copies: 2 + 2
B12: M103205H795-P1494m/M103202L889-SK1 (antibody, human IgG1, kappa, name in EU numbering)
heavy: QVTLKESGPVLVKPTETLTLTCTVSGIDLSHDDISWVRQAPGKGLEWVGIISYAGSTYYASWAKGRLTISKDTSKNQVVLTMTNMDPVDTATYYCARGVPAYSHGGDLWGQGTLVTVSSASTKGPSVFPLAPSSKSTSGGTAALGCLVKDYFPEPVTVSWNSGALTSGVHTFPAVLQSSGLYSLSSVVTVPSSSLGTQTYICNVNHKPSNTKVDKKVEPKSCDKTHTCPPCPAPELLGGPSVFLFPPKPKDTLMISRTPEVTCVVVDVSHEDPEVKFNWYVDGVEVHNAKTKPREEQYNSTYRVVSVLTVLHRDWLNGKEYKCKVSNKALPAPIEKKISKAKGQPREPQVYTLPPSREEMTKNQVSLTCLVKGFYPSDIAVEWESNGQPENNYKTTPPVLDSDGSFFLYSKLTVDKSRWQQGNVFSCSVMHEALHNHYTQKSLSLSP
light: B1 light
notes: copies: 2 + 2
B13: M103205H795-P1495m/M103202L889-SK1 (antibody, human IgG1, kappa, name in EU numbering)
heavy: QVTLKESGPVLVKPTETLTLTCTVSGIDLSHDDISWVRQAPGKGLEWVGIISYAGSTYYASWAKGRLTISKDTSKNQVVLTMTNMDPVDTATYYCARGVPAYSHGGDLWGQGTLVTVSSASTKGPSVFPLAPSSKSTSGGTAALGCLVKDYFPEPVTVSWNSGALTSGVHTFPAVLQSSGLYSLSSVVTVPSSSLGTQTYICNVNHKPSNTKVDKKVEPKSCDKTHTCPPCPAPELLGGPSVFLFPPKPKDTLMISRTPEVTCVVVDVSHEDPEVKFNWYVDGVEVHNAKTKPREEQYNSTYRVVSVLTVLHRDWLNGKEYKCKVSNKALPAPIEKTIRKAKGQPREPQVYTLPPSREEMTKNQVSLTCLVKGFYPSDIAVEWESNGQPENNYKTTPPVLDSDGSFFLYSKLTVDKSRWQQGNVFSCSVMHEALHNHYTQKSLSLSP
light: B1 light
notes: copies: 2 + 2
B14: M103205H795-P1496m/M103202L889-SK1 (antibody, human IgG1, kappa, name in EU numbering)
heavy: not shown
light: B1 light
notes: copies: 2 + 2
B15: M103205H795-P1497m/M103202L889-SK1 (antibody, human IgG1, kappa, name in EU numbering)
heavy: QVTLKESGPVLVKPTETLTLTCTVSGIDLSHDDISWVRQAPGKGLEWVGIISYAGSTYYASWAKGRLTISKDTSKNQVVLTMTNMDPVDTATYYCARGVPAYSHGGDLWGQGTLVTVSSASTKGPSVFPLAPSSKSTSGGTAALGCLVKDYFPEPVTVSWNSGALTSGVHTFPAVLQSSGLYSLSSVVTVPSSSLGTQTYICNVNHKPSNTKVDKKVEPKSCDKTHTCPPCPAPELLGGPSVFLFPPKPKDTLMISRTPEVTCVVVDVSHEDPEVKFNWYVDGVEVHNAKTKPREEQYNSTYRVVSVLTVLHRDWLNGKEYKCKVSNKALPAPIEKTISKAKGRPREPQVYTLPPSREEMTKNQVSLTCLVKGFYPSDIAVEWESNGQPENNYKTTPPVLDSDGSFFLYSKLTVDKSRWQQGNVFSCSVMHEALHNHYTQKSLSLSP
light: B1 light
B16: M103205H795-P1498m/M103202L889-SK1 (antibody, human IgG1, kappa, name in EU numbering)
heavy: not shown
light: B1 light
B17: M103205H795-P1500m/M103202L889-SK1 (antibody, human IgG1, kappa, name in EU numbering)
heavy: not shown
light: B1 light
B18: M103205H795-P1501m/M103202L889-SK1 (antibody, human IgG1, kappa, name in EU numbering)
heavy: not shown
light: B1 light
notes: copies: 2 + 2
B19: M103205H795-P1522m/M103202L889-SK1 (antibody, human IgG1, kappa, name in EU numbering)
heavy: not shown
light: B1 light
notes: copies: 2 + 2
B20: M103205H795-P1523m/M103202L889-SK1 (antibody, human IgG1, kappa, name in EU numbering)
heavy: not shown
light: B1 light
notes: copies: 2 + 2
B21: M103205H795-P1524m/M103202L889-SK1 (antibody, human IgG1, kappa, name in EU numbering)
heavy: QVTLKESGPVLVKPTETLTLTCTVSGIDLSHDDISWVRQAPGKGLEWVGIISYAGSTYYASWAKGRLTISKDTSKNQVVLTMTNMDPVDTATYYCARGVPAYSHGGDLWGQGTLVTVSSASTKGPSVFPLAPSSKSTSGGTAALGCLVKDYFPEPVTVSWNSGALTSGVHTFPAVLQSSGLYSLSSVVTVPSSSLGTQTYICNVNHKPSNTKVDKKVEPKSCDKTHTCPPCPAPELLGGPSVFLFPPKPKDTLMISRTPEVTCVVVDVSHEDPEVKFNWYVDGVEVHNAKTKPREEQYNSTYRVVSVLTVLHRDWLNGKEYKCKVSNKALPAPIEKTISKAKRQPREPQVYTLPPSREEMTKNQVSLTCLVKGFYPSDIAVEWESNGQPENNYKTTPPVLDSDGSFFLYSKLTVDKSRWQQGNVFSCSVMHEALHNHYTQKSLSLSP
light: B1 light
B22: M103205H795-P1525m/M103202L889-SK1 (antibody, human IgG1, kappa, name in EU numbering)
heavy: not shown
light: B1 light
B23: M103205H795-P1526m/M103202L889-SK1 (antibody, human IgG1, kappa, name in EU numbering)
heavy: not shown
light: B1 light
notes: copies: 2 + 2
B24: M103205H795-P1527m/M103202L889-SK1 (antibody, human IgG1, kappa, name in EU numbering)
heavy: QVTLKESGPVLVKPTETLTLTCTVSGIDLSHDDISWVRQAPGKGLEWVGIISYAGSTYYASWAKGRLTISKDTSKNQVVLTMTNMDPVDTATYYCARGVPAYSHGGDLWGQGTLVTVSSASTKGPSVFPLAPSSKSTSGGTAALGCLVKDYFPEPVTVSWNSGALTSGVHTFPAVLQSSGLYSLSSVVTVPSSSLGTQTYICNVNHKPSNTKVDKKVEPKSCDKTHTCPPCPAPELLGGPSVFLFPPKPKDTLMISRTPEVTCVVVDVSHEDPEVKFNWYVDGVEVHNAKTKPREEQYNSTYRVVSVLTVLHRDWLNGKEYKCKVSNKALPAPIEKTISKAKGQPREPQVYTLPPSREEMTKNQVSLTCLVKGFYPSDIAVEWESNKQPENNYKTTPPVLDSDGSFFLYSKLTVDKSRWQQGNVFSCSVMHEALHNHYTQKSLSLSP
light: B1 light
notes: copies: 2 + 2
B25: M103205H795-P1528m/M103202L889-SK1 (antibody, human IgG1, kappa, name in EU numbering)
heavy: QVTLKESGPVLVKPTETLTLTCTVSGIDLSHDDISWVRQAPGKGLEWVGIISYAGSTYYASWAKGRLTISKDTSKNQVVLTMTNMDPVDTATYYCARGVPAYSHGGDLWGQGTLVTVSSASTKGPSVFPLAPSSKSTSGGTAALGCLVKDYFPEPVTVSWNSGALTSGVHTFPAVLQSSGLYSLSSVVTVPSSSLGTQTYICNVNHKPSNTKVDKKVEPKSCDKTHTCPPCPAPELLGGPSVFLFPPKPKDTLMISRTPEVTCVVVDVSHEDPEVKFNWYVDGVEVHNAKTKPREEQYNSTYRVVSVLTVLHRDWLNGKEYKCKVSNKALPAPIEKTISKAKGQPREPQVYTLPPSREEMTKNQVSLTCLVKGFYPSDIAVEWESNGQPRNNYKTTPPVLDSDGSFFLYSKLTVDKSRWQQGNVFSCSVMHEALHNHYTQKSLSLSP
light: B1 light
notes: copies: 2 + 2
B26: M103205H795-P1529m/M103202L889-SK1 (antibody, human IgG1, kappa, name in EU numbering)
heavy: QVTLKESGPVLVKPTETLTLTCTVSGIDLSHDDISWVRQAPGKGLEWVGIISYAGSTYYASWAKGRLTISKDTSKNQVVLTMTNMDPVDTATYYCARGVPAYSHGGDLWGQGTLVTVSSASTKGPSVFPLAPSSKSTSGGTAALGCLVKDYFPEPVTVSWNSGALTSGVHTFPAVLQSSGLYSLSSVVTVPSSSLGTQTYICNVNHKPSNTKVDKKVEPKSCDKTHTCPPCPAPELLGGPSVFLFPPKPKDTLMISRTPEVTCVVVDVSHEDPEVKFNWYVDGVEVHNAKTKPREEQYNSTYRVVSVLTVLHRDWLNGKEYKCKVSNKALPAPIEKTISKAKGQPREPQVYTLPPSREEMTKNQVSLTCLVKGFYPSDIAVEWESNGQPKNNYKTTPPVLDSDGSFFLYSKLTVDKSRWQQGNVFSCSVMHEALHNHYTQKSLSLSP
light: B1 light
notes: copies: 2 + 2
B27: M103205H795-P1530m/M103202L889-SK1 (antibody, human IgG1, kappa, name in EU numbering)
heavy: not shown
light: B1 light
notes: copies: 2 + 2
B28: M103205H795-P1531m/M103202L889-SK1 (antibody, human IgG1, kappa, name in EU numbering)
heavy: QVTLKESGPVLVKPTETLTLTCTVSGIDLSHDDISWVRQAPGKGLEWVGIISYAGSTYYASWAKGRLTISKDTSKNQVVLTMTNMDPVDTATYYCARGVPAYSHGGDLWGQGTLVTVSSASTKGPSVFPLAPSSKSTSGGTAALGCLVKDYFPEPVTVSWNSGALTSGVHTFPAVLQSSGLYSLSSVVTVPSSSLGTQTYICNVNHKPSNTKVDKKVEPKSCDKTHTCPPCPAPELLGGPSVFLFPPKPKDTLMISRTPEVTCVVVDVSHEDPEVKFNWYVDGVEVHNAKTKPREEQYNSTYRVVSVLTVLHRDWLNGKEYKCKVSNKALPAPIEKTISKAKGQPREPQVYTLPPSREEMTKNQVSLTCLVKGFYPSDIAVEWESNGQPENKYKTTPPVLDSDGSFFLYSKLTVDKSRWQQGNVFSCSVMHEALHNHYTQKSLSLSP
light: B1 light
notes: copies: 2 + 2
B29: M103205H795-P1532m/M103202L889-SK1 (antibody, human IgG1, kappa, name in EU numbering)
heavy: not shown
light: B1 light
notes: copies: 2 + 2
B30: M103205H795-P1533m/M103202L889-SK1 (antibody, human IgG1, kappa, name in EU numbering)
heavy: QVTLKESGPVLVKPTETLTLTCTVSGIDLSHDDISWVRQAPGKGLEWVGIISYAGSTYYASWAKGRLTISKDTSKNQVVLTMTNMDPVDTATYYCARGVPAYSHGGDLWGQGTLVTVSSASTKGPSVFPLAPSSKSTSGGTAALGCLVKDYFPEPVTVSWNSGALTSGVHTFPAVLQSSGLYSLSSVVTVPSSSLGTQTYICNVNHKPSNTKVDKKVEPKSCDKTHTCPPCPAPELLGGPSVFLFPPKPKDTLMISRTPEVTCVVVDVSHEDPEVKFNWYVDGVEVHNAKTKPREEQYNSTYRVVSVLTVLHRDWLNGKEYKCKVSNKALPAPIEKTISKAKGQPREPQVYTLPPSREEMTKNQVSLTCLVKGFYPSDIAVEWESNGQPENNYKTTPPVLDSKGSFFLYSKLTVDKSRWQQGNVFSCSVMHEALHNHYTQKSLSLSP
light: B1 light
notes: copies: 2 + 2
B31: M103205H795-P1534m/M103202L889-SK1 (antibody, human IgG1, kappa, name in EU numbering)
heavy: not shown
light: B1 light
notes: copies: 2 + 2
B32: M103205H795-P1535m/M103202L889-SK1 (antibody, human IgG1, kappa, name in EU numbering)
heavy: not shown
light: B1 light
notes: copies: 2 + 2
B33: M103205H795-P1536m/M103202L889-SK1 (antibody, human IgG1, kappa, name in EU numbering)
heavy: not shown
light: B1 light
notes: copies: 2 + 2
B34: M103205H795-P1537m/M103202L889-SK1 (antibody, human IgG1, kappa, name in EU numbering)
heavy: not shown
light: B1 light
notes: copies: 2 + 2
B35: M103205H795-P1538m/M103202L889-SK1 (antibody, human IgG1, kappa, name in EU numbering)
heavy: not shown
light: B1 light
notes: copies: 2 + 2

What follows are binders tested against T1, human FcγRIIb constitutively expressed on MDCK cells (human, UniProt P31994 43-310) (assay: cell-based or functional assay).
T1 sequence (looked up): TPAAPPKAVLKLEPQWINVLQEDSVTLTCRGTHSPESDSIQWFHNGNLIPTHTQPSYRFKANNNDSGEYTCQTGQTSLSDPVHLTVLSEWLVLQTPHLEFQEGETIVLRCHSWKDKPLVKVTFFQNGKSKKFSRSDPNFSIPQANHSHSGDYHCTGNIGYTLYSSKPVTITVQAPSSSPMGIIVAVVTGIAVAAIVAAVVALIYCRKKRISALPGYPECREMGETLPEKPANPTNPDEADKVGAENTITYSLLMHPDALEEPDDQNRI

Binder | celluar uptake (labelled human latent myostatin taken up as antigen-antibody complex)
B1 | 3.43 relative to SG1 = 1.00
B2 | 0 relative to SG1 = 1.00
B3 | 1.88 relative to SG1 = 1.00
B4 | 1.52 relative to SG1 = 1.00
B5 | 1.23 relative to SG1 = 1.00
B6 | 1.45 relative to SG1 = 1.00
B7 | 1.68 relative to SG1 = 1.00
B8 | 1.33 relative to SG1 = 1.00
B9 | 1.37 relative to SG1 = 1.00
B10 | 1.13 relative to SG1 = 1.00
B11 | 0.99 relative to SG1 = 1.00
B12 | 1.12 relative to SG1 = 1.00
B13 | 1.76 relative to SG1 = 1.00
B14 | 1.69 relative to SG1 = 1.00
B15 | 1.38 relative to SG1 = 1.00
B16 | 1.56 relative to SG1 = 1.00
B17 | 1.82 relative to SG1 = 1.00
B18 | 2.4 relative to SG1 = 1.00

Binder | celluar uptake (labelled human latent myostatin taken up as antigen-antibody complex)
B19 | 2.13 relative to SG1 = 1.00
B20 | 1.91 relative to SG1 = 1.00
B21 | 3.66 relative to SG1 = 1.00
B22 | 3.55 relative to SG1 = 1.00
B23 | 1.2 relative to SG1 = 1.00
B24 | 0.92 relative to SG1 = 1.00
B25 | 3.02 relative to SG1 = 1.00
B26 | 2.86 relative to SG1 = 1.00
B27 | 3.12 relative to SG1 = 1.00
B28 | 2.35 relative to SG1 = 1.00
B29 | 4.16 relative to SG1 = 1.00
B30 | 3.52 relative to SG1 = 1.00
B31 | 3.12 relative to SG1 = 1.00
B32 | 2.49 relative to SG1 = 1.00
B33 | 2.05 relative to SG1 = 1.00
B34 | 2.77 relative to SG1 = 1.00
B35 | 1.84 relative to SG1 = 1.00

The binders below were run against T2, soluble mouse FcγRII, His-tagged (mouse, UniProt P08101 30-210, limits assumed) (assay: SPR, mouse FcγRII captured via His-tag, antigen-antibody complex injected, pH 7.4, 25 C).
T2 construct: Captured on the chip through an anti-His antibody
T2 sequence (looked up): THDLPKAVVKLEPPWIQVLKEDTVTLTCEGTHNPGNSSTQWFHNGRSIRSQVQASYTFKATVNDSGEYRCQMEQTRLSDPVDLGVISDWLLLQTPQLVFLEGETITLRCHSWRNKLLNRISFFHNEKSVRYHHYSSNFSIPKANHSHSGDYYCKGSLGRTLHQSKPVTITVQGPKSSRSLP
Method: Regarding the produced Fc region variant-containing antibodies, binding assays between soluble mouse FcγRII and antigen-antibody complexes were performed using BIACORE® T200 (GE Healthcare). Soluble mouse FcγRII was produced in the form of a His-tagged molecule by a method known to those skilled in the art. An appropriate amount of an anti-His antibody was fixed onto Sensor chip CM5 (GE Healthcare) by the amine coupling method using a His capture kit (GE Healthcare) to capture mouse FcγRII. Next, an antibody-antigen complex and a running buffer (as a reference solution) were injected, and interaction was allowed to take place with the mouse FcγRII captured onto the sensor chip. 20 mM N-(2-Acetamido)-2-aminoethanesulfonic acid, 150 mM NaCl, 1.2 mM CaCl₂), and 0.05% (w/v) TWEEN® 20 at pH7.4 was used as the running buffer, and the respective buffer was also used to dilute the soluble mouse FcγRII. To regenerate the sensor chip, 10 mM glycine-HCl at pH1.5 was used. All measurements were carried out at 25° C. […] To calculate the parameters, the BIACORE® T100 Evaluation Software (GE Healthcare) was used.

Binder | biacore IC binding (relative, SG1 = 1.00)
B1 | 1.21 relative to SG1
B2 | 1.33 relative to SG1
B3 | 1.29 relative to SG1
B4 | 1.2 relative to SG1
B5 | 1.46 relative to SG1
B6 | 1.43 relative to SG1
B7 | 1.24 relative to SG1
B8 | 1.28 relative to SG1
B9 | 1.05 relative to SG1
B10 | 0.88 relative to SG1
B11 | 1.1 relative to SG1
B12 | 1.14 relative to SG1
B13 | 1.3 relative to SG1
B14 | 1.28 relative to SG1
B15 | 1.49 relative to SG1
B16 | 1.38 relative to SG1
B17 | 1.32 relative to SG1
B18 | 1.82 relative to SG1

Binder | biacore IC binding (relative, SG1 = 1.00)
B19 | 1.24 relative to SG1
B20 | 1.19 relative to SG1
B21 | 1.4 relative to SG1
B22 | 1.31 relative to SG1
B23 | 1.04 relative to SG1
B24 | 0.98 relative to SG1
B25 | 1.12 relative to SG1
B26 | 1.08 relative to SG1
B27 | 1.09 relative to SG1
B28 | 1.01 relative to SG1
B29 | 1.23 relative to SG1
B30 | 1.18 relative to SG1
B31 | 1.12 relative to SG1
B32 | 1.11 relative to SG1
B33 | 1.16 relative to SG1
B34 | 1.32 relative to SG1
B35 | 1.11 relative to SG1
